In experiment [1] the target is T1, BSA-conjugated mouse CADM1 peptide (mouse, also: conjugated to BSA via added C-terminal Cys).
T1 construct: also called mouse peptide
T1 peptide: DSRAGEEGTIGAVDHC(BSA)
Briefly: ELISA, scFv titrated on coated BSA-conjugated mouse CADM1 peptide, anti-HA-HRP, OD450. In general terms: In an ELISA, binding on a coated surface is turned into a signal by an enzyme label.

Experiment [2] concerns the target T2, BSA-conjugated human CADM1 peptide (human, also: conjugated to BSA via added C-terminal Cys).
T2 construct: also called human peptide; rhCADM1 peptide
T2 peptide: DSRAGEEGSIRAVDHC(BSA)
The experiment in a line: ELISA, scFv titrated on coated BSA-conjugated human CADM1 peptide, anti-HA-HRP, OD450.

Experiment [3] concerns the target T3, CADM1 peptide expressed on SBC-5 small cell lung cancer cells (CADM1-SBC-5); peptide - transmembrane domain - … (human).
T3 construct: also called CADM1 펩타이드를 발현하는 SBC-5 세포
T3 sequence (Q9BY67 whole entry, looked up): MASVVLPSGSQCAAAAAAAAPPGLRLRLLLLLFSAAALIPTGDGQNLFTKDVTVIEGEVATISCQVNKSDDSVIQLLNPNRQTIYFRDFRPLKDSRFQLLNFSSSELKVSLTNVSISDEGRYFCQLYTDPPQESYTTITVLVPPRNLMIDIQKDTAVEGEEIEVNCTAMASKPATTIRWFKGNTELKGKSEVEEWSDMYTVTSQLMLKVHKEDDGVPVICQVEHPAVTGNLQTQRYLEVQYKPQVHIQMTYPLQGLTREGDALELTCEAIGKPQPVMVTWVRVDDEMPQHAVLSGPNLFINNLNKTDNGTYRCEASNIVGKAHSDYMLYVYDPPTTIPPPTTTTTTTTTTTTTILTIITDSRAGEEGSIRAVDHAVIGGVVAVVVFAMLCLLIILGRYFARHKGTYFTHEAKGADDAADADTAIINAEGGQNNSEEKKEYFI
The experiment in a line: flow cytometry, 1 ug scFv on 5x10^5 SBC-5 cells expressing the CADM1 peptide, PE anti-HA.

Experiment [4] deals with T4, comparison structure: the same structure without the CADM1 peptide (Myc tag, hinge, transmembrane domain, …).
T4 construct: also called 비교군 구조; CADM1 펩타이드를 포함하지 않는 세포
Briefly: flow cytometry, 1 ug scFv on 5x10^5 cells with the structure without the CADM1 peptide, PE anti-HA. A general note: A flow cytometer gives signals particle by particle.

The target in experiment [5] is T2, BSA-conjugated human CADM1 peptide. Briefly: ELISA, scFv titrated on coated BSA-conjugated human CADM1 peptide, anti-HA-HRP, OD450.
Experiment [6] deals with T1, BSA-conjugated mouse CADM1 peptide. The experiment in a line: ELISA, scFv titrated on coated BSA-conjugated mouse CADM1 peptide, anti-HA-HRP, OD450.

Where a chain is given by its changes, count along the chain named. Where two headings read alike, the source gives them in different places. Where no end group is shown, it is not given here.

A word on the Kd: it is the concentration at which binding is half-saturated.

B1: 4H7 (scFv, V domains shown)
VH: AVTLDESGGGLQTPGGTLSLVCKASGFDFSSYEMAWVRQAPGKGLEYVAGIDNTGSATNYGAAVKGRATISRDNGQSTVRLQLNNLRAEDTATYFCAKDAYGYSGSDSWYAANPAYIDAWGHGTEVIVSS
VL: LTQPSSVSANPGETVKITCSGSSGSYGWYQQKSPGSAPVTVIYDNTNRPSDIPSRFSGSKSGSTGTLTITGVQAEDEAVYFCGSRDSSYVGIFGAGTTLTVL
notes: Tested as purified scFv with His tag and HA tag; chicken immune library
In experiment [1], B1 had a Bmax of 5.57 and an equilibrium dissociation constant (Kd) of 394 nM. Moreover, in experiment [2], the Bmax amounted to 4.48 and the equilibrium dissociation constant (Kd) came to 52.7 nM. Besides, the “결합력 (%)” value in experiment [3] is 3.3%.

B2: 5A2 (scFv, V domains shown)
VH: AVTLDESGGGLQTPGGTLSLVCKGSGFDFSSVNMFWVRQAPGKGLEYVAGIRKDGGGPLYGAAVKGRATISRDNGQSTVRLQLNNLRAEDTGTYFCAKAAGSCWAGCTGFIDAWGHGTEVIVSS
VL: B1 VL with S22G, G24S, S25Y, D44Y, T46D, N47K, G65A, F81Y, R85A
notes: as for B1
In experiment [1], B2 registered a Bmax of 4.32 and a dissociation constant (Kd) of 59.2 nM. Further, in experiment [2], the Bmax was found to be 4.38 and the Kd stood at 47.9 nM. In experiment [3], the “결합력 (%)” value is 1.2%.

B3: 4A2 (scFv, V domains shown)
VH: AVTLDESGGGLQTPGRALSLACKGSGFTFSSYAMNWVRQAPGKGLEFVAQITSSGRYTYYGTAVKGRATISRDNGQSTVRLQLNNLRAEDSGTYYCAKDAAAGYYDGATAGDIDAWGHGTEVIVSS
VL: LTQPSSVSANPGETVKITCSGGYNRYGWYQQKSPGSAPVTVIYSNNQRPSNIPSRFSGSKSGSTATLTITGVQAEDEAVYYCGSYDSSDGYAGIFGAGTTLTVL
notes: as for B1
Take B3: the Bmax was 4.49 in experiment [1] and 4.14 in experiment [2]. In addition, the Kd in experiment [1] is 79.2 nM; in experiment [2], 4.19 nM. The results for the “결합력 (%)” value in experiment [3] and in experiment [4] were 18.5% and 0.7%, respectively.

B4: 4A8 (scFv, V domains shown)
VH: B3 VH with R16G, A17G, A21V, G24A
VL: LTQPSSVSANLGGTVKITCSGGSGSNHYGWYQQKSPGSAPVTVIYSNNKRPSNIPSRFSGSKFGSTATLTITGVQADDEAVYYCGGYDSSAGYIGPFGAGTTLTVL
notes: as for B1
Turning to B4, the Bmax is 4.43 in experiment [1] and 4.22 in experiment [2]. Besides, the results for the Kd in experiment [1] and in experiment [2] were 70.2 nM and 16.4 nM, respectively. In addition, the “결합력 (%)” value is 10.1% in experiment [3] and 0.9% in experiment [4].

B5: RB11 (scFv, V domains shown)
VH: B3 VH with R16G, A17G, A21V
VL: LTQPSSVSANPGGTVKITCSGGSGSYGWFQQKAPGSAPVTLIYANTNRPSDIPSRFSGSKSGSTATLTITGVQVEDEAVYYCGSTDSSYVSIFGAGTTLTVL
notes: as for B1
Turning to B5, the Bmax in experiment [1] is 4; in experiment [2], 4.01. Moreover, the Kd in experiment [1] was 2.72 nM; in experiment [2], 0.649 nM. Further, the entries for the “결합력 (%)” value in experiment [3] and in experiment [4] were 38.4% and 1.2%, respectively.

B6: 6RC7 (scFv, V domains shown)
VH: EVQLLESGGGLVQPGGSLRLSCAASGFTFSNYAMSWVRQAPGKGLEWVSGIYPNSGSNTYYADSVKGRFTISRDNSKNTLYLQMNSLRAEDTAVYYCARAIGPCLRYPCYSADAMDVWGQGTLVTVSS
VL: QSVLTQPPSASGTPGQRVTISCTGSSSNIGSNYVNWYQQLPGTAPKLLIYANSNPPSGVPDRFSGSKSGTSASLGISGLRSEDEADYYCGAWDDNLNAYVFVGGTKLTVL
notes: Tested as purified scFv with His tag and HA tag; human synthetic library
As to B6, in experiment [5], the Bmax came out at 4.19 and the Kd was 4.23 nM. In experiment [6], this molecule registered a Bmax of 4.19 and a dissociation constant Kd of 4.8 nM.

B7: 5RA5 (scFv, V domains shown)
VH: EVQLLESGGGLVQPGGSLRLSCAASGFTFSNYAMSWVRQAPGKGLEWVSWIYHGGGDTYYADSVKGRFTISRDNSKNTLYLQMNSLRAEDTAVYYCARAAVYCKRTNCYSYDAMDVWGQGTLVTVSS
VL: QSVLTQPPSASGTPGQRVTISCSGSSSNIGNNSVTWYQQLPGTAPKLLIYSNNNRPSGVPDRFSGSKSGTSASLAISGLRSEDEADYYCGAWDDSLNAYVFGGGTKLTAL
notes: Tested as purified scFv (one chain) with His tag and HA tag, from pComb3X in E. coli; human synthetic library
B7: in experiment [5], the Bmax amounted to 4.29 and the affinity, expressed as Kd, was 10.4 nM. In experiment [6], this molecule came in with a Bmax of 4.39 and a Kd of 39.5 nM.

B8: 5RB6 (scFv, V domains shown)
VH: EVQLLESGGGLVQPGGSLRLSCAASGFTFSDYAMSWVRQAPGKGLEWVSWIYYDSGSKYYADSVKGRFTISRDNSKNTLYLQMDSLRAEDTAVYYCAKHGRNTKNWPWYSANGMDVWGQGTLVTVSS
VL: B7 VL with S23T, N31S, T35S, N52D, N53S, N54K, D94S, N97S, A109V
notes: Tested as purified scFv with His tag and HA tag; human synthetic library; also called 5RB6(H); 5RB6 # Human specific
On to B8, for which, in experiment [5], the Bmax is 4.25 and the dissociation constant (Kd) is 11.9 nM.

B9: 5RA7 (scFv, V domains shown)
VH: EVQLLESGGGLVQTGGSLRLSCAASGFTFSDYAMSWVRQAPGRGLEWVSAIYPGNSSIYYADSVKGRFTISRDNSKNTLYLQMNSLRAEDTAVYYCARVPVQCMLTRCYSYDAMDVWGQGTLVTVSS
VL: B7 VL with S23T, S51A, N52D, N53S, N54H, D94S, A109V
notes: as for B6
As for B9, the Bmax was found to be 4.42 in experiment [5] and 4.54 in experiment [6]. Further, the figures for the dissociation constant Kd in experiment [5] and in experiment [6] were 43.7 nM and 114 nM, respectively.

B10: 5RA8 (scFv, V domains shown)
VH: EVQLLESGGGLVQPGGSLRLSCAASGFTFSSYGMSWVRQAPGKGLEWVSGISYSGGSTYYADSVKGRFTISRDNSKNTLYLQMNSLRAEDTAVYYCARPISRLGAYMWSSSYAMDVWGQGTLVTVSS
VL: B7 VL with N31S, S33Y, S51A, N53S, A91S, D94A, A98G, A109V
notes: as for B6
Regarding B10, in experiment [5], the Bmax was 4.12 and binding was put at a Kd of 1.9 nM. In experiment [6], this molecule returned a Bmax of 4.11 and a dissociation constant Kd of 2 nM.

B11: 5RH12 (scFv, V domains shown)
VH: B7 VH with N84S, A100R, Y102H, K104Q, R105Q, T106R, N107R, Y109S
VL: B7 VL with N31S, T35S, S51A, N52D, N53S, N54H, N97S, A109V
notes: as for B6
In experiment [5], B11 registered a Bmax of 5.07 and a Kd of 271 nM. For the same molecule, in experiment [6], the Bmax turned out to be 6.13 and binding was put at a Kd of 666 nM.

B12: 5RG9 (scFv, V domains shown)
VH: B10 VH with G50W, S57N, R102H, L103F
VL: B7 VL with N31S, S33Y, S51A, N53S, E84G, D94A, A98G, A109V
notes: as for B6
Take B12: in experiment [5], the Bmax stood at 3.52 and binding was characterised by a dissociation constant (Kd) of 8.05 nM. Further, in experiment [6], the Bmax was found to be 3.64 and the Kd was 6.97 nM.

B13: 3C5 (scFv, V domains shown)
VH: B2 VH with G16R, T17A, D28T, F95Y
VL: LTQPSSVSANPGETVKITCSGGYNYYGWYQQKAPGSAPVTLIYANTDRPSDIPSRFSGSKFGSTATLTITGVQAEDEAVYFCGSRDSSYVGVFGAGTTLTVL
notes: as for B1
With B13, in experiment [1], the Bmax was 4.05 and the affinity, expressed as Kd, was 41.7 nM. In experiment [2], this molecule gave a Bmax of 4.41 and a Kd of 49.7 nM. Besides, the “결합력 (%)” value in experiment [3] stood at 1.1%.

B14: 3G10 (scFv, V domains shown)
VH: B2 VH with T17G, D28T, F95Y
VL: LTQPSSVSANPGETVKITCSGSTGSYGWFQQKSPGSALVTLIYNGNNRPSDIPSRFSGSKSGSTGTLTITGVQADDEAVYFCGGRESRSNPGIFGAGTTLTVL
notes: as for B1
Consider B14, for which, in experiment [1], the Bmax came out at 1.62 and the Kd was determined as 0.926 nM. In addition, in experiment [2], the Bmax is 1.91 and the affinity, expressed as Kd, was 2.77 nM.

B15: 5A5 (scFv, V domains shown)
VH: B2 VH with T17G, D28T, F95Y
VL: LTQPSSVSANLGGTVKITCSGSSGYGYGWYQQKSPGSAPVTVIYYNNKRPSDIPSRFSGSKSGSTATLTITGVQVEDEAVYYCGSADSSAGYVGIFGAGTTLTVL
notes: as for B1
With B15, in experiment [1], the Bmax was found to be 4.54 and the Kd amounted to 136 nM. In experiment [2], this molecule came in with a Bmax of 4.52 and a dissociation constant Kd of 123 nM.

B16: 4C8 (scFv, V domains shown)
VH: AVTLDESGGGLQTPGRALSLVCKASGFSFSSYSMYWVRQAPGKGLEYVAEITSSGRYTYYGSAVKGRATISRDNGQSTVRLQLNNFRAEDTATYFCAKGSGTGYSDSGAGGEIDAWGHGTEVIVSS
VL: LTQPSSVSANPGETVKITCSGGSGSYYGWYQQKSPGSAPVTVIYQNKQRPSNIPSRFSGSKSGSTGTLTITGVQAEDEAVYFCGNYESSAGIFGAGTTLTVL
notes: as for B1
As to B16, the Bmax turned out to be 2.06 in experiment [1] and 4.47 in experiment [2]. Besides, the Kd stood at 476 nM in experiment [1] and 66.5 nM in experiment [2]. In addition, in experiment [3], the “결합력 (%)” value was 2.3%.

These data come from patent KR20220167207A (dated 2022).
